Among the data in PMC6305201 are lowest concentration of RII and mean cluster area of RBCs under flow (1 dyn/cm^2), RII 1, 10 and 100 nM values, retold here.

The target of test [1] is glycophorin A on red blood cells (human (endogenous in red blood cells)) (UniProt P02724).
For test [2] the target is unchanged. This is another data set of the same source.

On to “recombinant soluble region II (RII) of EBA-175 (domain or fragment)”, for which the lowest concentration of RII at which RBC clustering was seen (confocal live imaging, picomolar and low nanomolar RII) in test [1] turned out to be 0.3 nM. Further, the mean cluster area of RBCs under flow (1 dyn/cm^2), RII 1, 10 and 100 nM in test [2] was 1140 µm^2.
